Data: PMC11956251 (BMC Microbiology, 2025)

Molecular target: T1, His-FtsZ fusion protein (Streptococcus suis SC19, UniProt A0A0H3MXZ7 1-409)
T1 sequence (looked up): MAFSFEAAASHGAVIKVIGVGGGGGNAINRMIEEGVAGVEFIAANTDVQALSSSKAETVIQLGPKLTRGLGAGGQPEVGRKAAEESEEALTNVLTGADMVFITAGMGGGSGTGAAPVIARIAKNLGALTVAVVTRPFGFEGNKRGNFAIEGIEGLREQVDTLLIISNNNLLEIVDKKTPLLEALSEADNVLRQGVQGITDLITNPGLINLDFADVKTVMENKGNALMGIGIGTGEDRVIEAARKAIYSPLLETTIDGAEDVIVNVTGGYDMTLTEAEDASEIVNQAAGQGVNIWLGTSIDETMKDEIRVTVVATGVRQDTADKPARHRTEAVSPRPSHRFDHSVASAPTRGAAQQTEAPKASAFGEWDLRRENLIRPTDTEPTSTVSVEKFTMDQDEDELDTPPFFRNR
Assay: BLI

B1: SepF labeled with biotin (natural protein, Streptococcus suis SC19, UniProt A4VTL1 1-187, looked up)
chain: MALKDTFKNLFNYFEVDEVNEVEEQADAYSMPNDRPKMRVANTTVAPVREQQPKVETRREARSESQLQRLHERQQELMTNNNEKEIVKTTIDIKFPKRYEDAPEMVNLLLDNASILIDFQYMSEQQARRCLDYLDGARSVLSGNLKKVSNTMWLLTPVNVTVNIEELRNAGTTTGVADSNFEFDIKR
modifications: biotin (biotin labeling kit; sites not stated)
Kd: 0.67 nM
